B1: Chitin biosynthesis protein CHS6 (Saccharomyces cerevisiae), P40955 (parent)
chain: MNLFWPSETKKQNEIPGGDYTPGNSPSVQKGYQFLNRDIFKSCPRIMERQFGECLHNRTHLIKDLISSGNVGLGPIEIVHMSYLNKHEKEEFGEYFYVTGIEVSGPAMPVEFLEVLKSSKRISKNISNNIILTYCCFNFFSNLDIRIRYDADDTFQTTAIDCNKETTDLTMTEKMWEETFASSVIRAIITNTNPELKPPGLVECPFYVGKDTISSCKKIIELLCRFLPRSLNCGWDSTKSMQATIVNNYLMYSLKSFIAITPSLVDFTIDYLKGLTKKDPIHDIYYKTAMITILDHIETKELDMITILNETLDPLLSLLNDLPPRDADSARLMNCMSDLLNIQTNFLLNRGDYELALGVSNTSTELALDSFESWYNLARCHIKKEEYEKALFAINSMPRLRKNDGHLETMYSRFLTSNYYKKPLNGTREHYDLTAMEFTNLSGTLRNWKEDELKRQIFGRIAMINEKKIGYTKEIWDDIAIKLGPICGPQSVNLINYVSPQEVKNIKNINLIARNTIGKQLGWFSGKIYGLLMEIVNKIGWNGLLNIRTEAFMMETEFYQASNNIIDENGHIPMESRKKRFCEGWLDDLFLDLYQDLKLSKISLSNKDEKHSGLEWELLGLIMLRTWHWEDAVACLRTSIVARFDPVSCQQLLKIYLQPPKNIQEVTLLDTDTIISLLIKKISYDCRYYNYCQIFNLQLLEKLCNELGTHILRNKILLQPSIGDEIMVMIDAMLAWIADLDHTVQP
partner: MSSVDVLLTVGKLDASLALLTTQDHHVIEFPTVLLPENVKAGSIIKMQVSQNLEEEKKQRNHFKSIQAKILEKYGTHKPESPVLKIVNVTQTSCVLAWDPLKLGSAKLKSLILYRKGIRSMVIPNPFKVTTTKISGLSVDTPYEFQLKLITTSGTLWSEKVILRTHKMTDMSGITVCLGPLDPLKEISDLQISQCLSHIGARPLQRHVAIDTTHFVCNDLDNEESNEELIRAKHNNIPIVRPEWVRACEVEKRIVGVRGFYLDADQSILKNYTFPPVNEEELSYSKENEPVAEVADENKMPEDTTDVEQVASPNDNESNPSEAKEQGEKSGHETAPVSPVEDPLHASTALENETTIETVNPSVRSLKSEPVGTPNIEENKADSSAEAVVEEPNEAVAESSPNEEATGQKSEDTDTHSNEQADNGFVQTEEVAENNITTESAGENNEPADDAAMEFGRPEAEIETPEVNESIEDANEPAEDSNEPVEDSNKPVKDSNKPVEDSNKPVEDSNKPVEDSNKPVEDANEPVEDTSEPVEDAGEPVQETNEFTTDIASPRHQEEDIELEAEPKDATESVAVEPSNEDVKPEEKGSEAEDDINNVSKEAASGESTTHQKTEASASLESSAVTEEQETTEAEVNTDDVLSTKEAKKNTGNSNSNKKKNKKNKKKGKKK
B2: Chitin biosynthesis protein CHS5 (Saccharomyces cerevisiae), Q12114 (parent)
chain: B1 partner
partner: B1 chain

Variants of: B1
Conditions: with chs5_yeast CHS5, Q12114

| effect of a mutation on the interaction | Variant |
| --- | --- |
| disrupting interaction | I305R |

Variants of: B2
Conditions: with chs6_yeast CHS6, P40955

| effect of a mutation on the interaction | Variant |
| --- | --- |
| disrupting interaction | Q67E |
| disrupting interaction | F63E |

From IntAct's records for PubMed 23000721
